According to publication PMC2663784:
Several values for one entry are separate records, joined by “and”; a condition that tells them apart may be missing. Equal values may be shown once.

Molecular target: humanized 3S193 VL-0-VH scFv multimer (humanized (mouse CDRs on human frameworks))
Test: SEC

stoichiometry N: 3 and 4
B1: humanized 3S193 VL-0-VH scFv multimer (scFv, V domains shown)
VH: EVQLVESGGGVVQPGRSLRLSCSTSGFTFSDYYMYWVRQAPGKGLEWVAYMSNVGAITDYPDTVKGRFTISRDNSKNTLFLQMDSLRPEDTGVYFCARGTRDGSWFAYWGQGTPVTVSS
VL: DIQMTQSPSSLSASVGDRVTITCRSSQRIVHSNGNTYLEWYQQTPGKAPKLLIYKVSNRFSGVPSRFSGSGSGTDFTFTISSLQPEDIATYYCFQGSHVPFTFGQGTKLQIT
